# In paper PMC3139429:
# How the values were obtained:
# [1] = target: MA (unmyristoylated matrix) (HIV-1, UniProt P12493 2-132); assay: fluorescence anisotropy
# [2] = target: MyrMA (myristoylated matrix) (HIV-1, UniProt P12493 2-132); assay: fluorescence anisotropy
binder,measurement,setting,value
GGACAGGAAUUAAUAGUAGCUGUCC (structured_RNA) [FITC-Sel25],Kd,[1],1030 ± 80 nM
same,Kd,[2],813 ± 74 nM
